Experimental data from IntAct's records for PubMed 16717101.

B1: Regulatory protein SIR4 (Saccharomyces cerevisiae), P11978 (parent)
chain: MPNDNKTPNRSSTPKFTKKPVTPNDKIPEREEKSNEVKTPKIPLFTFAKSKNYSRPSTAIHTSPHQPSDVKPTSHKQLQQPKSSPLKKNNYNSFPHSNLEKISNSKLLSLLRSKTSAGRIESNNPSHDASRSLASFEQTAFSRHAQQQTSTFNSKPVRTIVPISTSQTNNSFLSGVKSLLSEEKIRDYSKEILGINLANEQPVLEKPLKKGSADIGASVISLTKDKSIRKDTVEEKKEEKLNIGKNFAHSDSLSVPKVSAGDSGISPEESKARSPGIAKPNAIQTEVYGINEESTNERLEINQEKPVKLDENSANSTVASALDTNGTSATTETLTSKKIVPSPKKVAIDQDKITLHDEKTLAPSKHQPITSEQKMKEDADLKRMEILKSPHLSKSPADRPQGRRNSRNFSTRDEETTKLAFLVEYEGQENNYNSTSRSTEKKNDMNTSAKNKNGENKKIGKRPPEIMSTEAHVNKVTEETTKQIQSVRIDGRKVLQKVQGESHIDSRNNTLNVTPSKRPQLGEIPNPMKKHKPNEGRTPNISNGTINIQKKLEPKEIVRDILHTKESSNEAKKTIQNPLNKSQNTALPSTHKVTQKKDIKIGTNDLFQVESAPKISSEIDRENVKSKDEPVSKAVESKSLLNLFSNVLKAPFIKSESKPFSSDALSKEKANFLETIASTEKPENKTDKVSLSQPVSASKHEYSDNFPVSLSQPSKKSFANHTEDEQIEKKKICRGRMNTIITHPGKMELVYVSDSDDSSSDNDSLTDLESLSSGESNEIKVTNDLDTSAEKDQIQAGKWFDPVLDWRKSDRELTKNILWRIADKTTYDKETITDLIEQGIPKHSYLSGNPLTSVTNDICSVENYETSSAFFYQQVHKKDRLQYLPLYAVSTFENTNNTEKNDVTNKNINIGKHSQEQNSSSAKPSQIPTVSSPLGFEETKLSTTPTKSNRRVSHSDTNSSKPKNTKENLSKSSWRQEWLANLKLISVSLVDEFPSELSDSDRQIINEKMQLLKDIFANNLKSAISNNFRESDIIILKGEIEDYPMSSEIKIYYNELQNKPDAKKARFWSFMKTQRFVSNMGFDIQKSCEPVSISTSVKPHVVEPEHMADAKIMPKDILQITKKPLMVKNVKPSSPPDVKSLVQLSTMETKTLPEKKQFDSIFNSNKAKIIPGNGKHASENISLSFSRPASYGYFSVGKRVPIVEDRRVKQLDDITDSNTTEILTSVDVLGTHSQTGTQQSNMYTSTQKTELEIDNKDSVTECSKDMKEDGLSFVDIVLSKAASALDEKEKQLAVANEIIRSLSDEVMRNEIRITSLQGDLTFTKKCLENARSQISEKDAKINKLMEKDFQVNKEIKPY

Variants of: B1
Details: with sir3_yeast SIR3, P06701
Sequence of sir3_yeast SIR3, P06701 (P06701 whole entry): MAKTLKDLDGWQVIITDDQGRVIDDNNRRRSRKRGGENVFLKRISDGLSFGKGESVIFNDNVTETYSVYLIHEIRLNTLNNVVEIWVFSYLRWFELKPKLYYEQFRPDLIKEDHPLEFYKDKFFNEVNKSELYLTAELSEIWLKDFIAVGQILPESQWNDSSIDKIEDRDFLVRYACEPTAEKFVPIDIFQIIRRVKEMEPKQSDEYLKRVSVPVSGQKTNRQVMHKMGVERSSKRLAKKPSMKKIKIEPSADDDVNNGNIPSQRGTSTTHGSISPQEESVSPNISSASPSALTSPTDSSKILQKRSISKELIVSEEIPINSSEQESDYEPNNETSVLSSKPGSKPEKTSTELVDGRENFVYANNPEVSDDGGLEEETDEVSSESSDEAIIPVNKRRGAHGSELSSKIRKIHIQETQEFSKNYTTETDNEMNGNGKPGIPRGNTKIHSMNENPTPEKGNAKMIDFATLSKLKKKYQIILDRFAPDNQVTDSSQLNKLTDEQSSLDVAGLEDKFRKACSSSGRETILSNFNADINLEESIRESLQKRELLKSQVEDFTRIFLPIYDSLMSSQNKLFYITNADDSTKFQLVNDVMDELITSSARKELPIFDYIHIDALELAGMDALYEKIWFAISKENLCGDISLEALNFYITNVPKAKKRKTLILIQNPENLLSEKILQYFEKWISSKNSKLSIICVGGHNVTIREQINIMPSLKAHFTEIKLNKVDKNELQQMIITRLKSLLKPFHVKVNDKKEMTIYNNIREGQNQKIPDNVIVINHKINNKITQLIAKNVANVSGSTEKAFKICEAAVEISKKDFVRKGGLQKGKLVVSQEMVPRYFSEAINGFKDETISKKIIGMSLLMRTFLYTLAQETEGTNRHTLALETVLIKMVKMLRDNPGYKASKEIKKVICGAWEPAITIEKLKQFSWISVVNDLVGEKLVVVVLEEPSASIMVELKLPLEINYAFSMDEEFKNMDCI

Row | effect of a mutation on the interaction | Variant
1 | decreasing interaction | M1307N
